PMC10054981 (bioRxiv, 2023)

B1: Speckle-type POZ protein (SPOP) wild type, residues 28-359 (domain or fragment)
chain: KVVKFSYMWTINNFSFCREEMGEVIKSSTFSSGANDKLKWCLRVNPKGLDEESKDYLSLYLLLVSCPKSEVRAKFKFSILNAKGEETKAMESQRAYRFVQGKDWGFKKFIRRDFLLDEANGLLPDDKLTLFCEVSVVQDSVNISGQNTMNMVKVPECRLADELGGLWENSRFTDCCLCVAGQEFQAHKAILAARSPVFSAMFEHEMEESKKNRVEINDVEPEVFKEMMCFIYTGKAPNLDKMADDLLAAADKYALERLKVMCEDALCSNLSVENAAEILILADLHSADQLKTQAVDFINYHASDVLETSGWKSMVVSHPHLVAEAYRSLASA
B2: SPOP R354H, residues 28-359 (domain or fragment)
chain: KVVKFSYMWTINNFSFCREEMGEVIKSSTFSSGANDKLKWCLRVNPKGLDEESKDYLSLYLLLVSCPKSEVRAKFKFSILNAKGEETKAMESQRAYRFVQGKDWGFKKFIRRDFLLDEANGLLPDDKLTLFCEVSVVQDSVNISGQNTMNMVKVPECRLADELGGLWENSRFTDCCLCVAGQEFQAHKAILAARSPVFSAMFEHEMEESKKNRVEINDVEPEVFKEMMCFIYTGKAPNLDKMADDLLAAADKYALERLKVMCEDALCSNLSVENAAEILILADLHSADQLKTQAVDFINYHASDVLETSGWKSMVVSHPHLVAEAYHSLASA

What was measured:
[1] = molecular target: fluorescently labeled peptide derived from a SPOP-binding motif from the substrate Puckered; test: fluorescence polarisation
CG-MALS = molecular target: the molecule itself; test: CG-MALS
[2] = molecular target: SPOP R221C, residues 28-359 (human, UniProt O43791 28-359, R221C); test: fluorescence polarisation
[3] = molecular target: B1; test: fluorescence polarisation
[4] = molecular target: B2; test: fluorescence polarisation

“SPOP R354H, residues 28-359 (from UniProt O43791 28-359) (domain or fragment)” showed a Kd [1] of 5.1 µM.

For “SPOP R221C, residues 28-359 (from UniProt O43791 28-359) (domain or fragment)”, the Kd [1] was 5.9 µM.

“SPOP mutBACK (Y353E), residues 28-359 (from UniProt O43791 28-359) (domain or fragment)” gave a Kd [1] of 4.3 µM.

Work on “Speckle-type POZ protein (SPOP) wild type, residues 28-359 (from UniProt O43791 28-359) (domain or fragment)” yielded a Kd [1] of 9.8 µM.

Work on B1 yielded a Kd (CG-MALS) of 2.7 µM.

In the case of B2, the Kd (CG-MALS) is reported as 26.9 µM.

B3: C-terminal intrinsically disordered region (IDR) of DAXX (cDAXX), fluorescently labeled (domain or fragment)
chain: SPMSSLQISNEKNLEPGKQISRSSGEQQNKGRIVSPSLLSEEPLAPSSIDAESNGEQPEELTLEEESPVSQLFELEIEALPLDTPSSVETDISSSRKQSEEPFTTVLENGAGMVSSTSFNGGVSPHNWGDSGPPCKKSRKEKKQTGSGPLGNSYVERQRSVHEKNGKKICTLPSPPSPLASLAPVADSSTRVDSPSHGLVTSSLCIPSPARLSQTPHSQPPRPGTCKTSVATQCDPEEIIVLSDSD
B3 showed a Kd [2] of 3.2 µM, a Kd [3] of 1.2 µM and a Kd [4] of 3 µM.
